System: CNBP full-length
Assay: MST
Conditions: MST Buffer (composition, salt and pH not given); RED-Tris-NTA labeling 30 min at room temperature; RNA in 16 two-fold dilutions; 60% LED, high MST power …

SARS-CoV-2 genome RNA showed a Kd of 29.7 µg/mL.
